Source: paper PMC9653487, “Structural basis for mechanotransduction in a potassium-dependent mechanosensitive ion channel” (Nature Communications, 2022)
Positions count from the first letter of the chain named. Numbers in names are those of the source.

Key:
[1] = target: the molecule itself; test: cryo-EM structure; single-particle cryo-EM of EcMscK G924S in 0.02% GDN, 20 mM Tris-HCl pH 8.0, 150 mM NaCl or 150 mM KCl (datasets combined); refined with C7 symmetry; closed, intermediate and open classes
[2] = target: the molecule itself; test: cryo-EM structure; single-particle cryo-EM of WT EcMscK in 0.02% GDN, 20 mM Tris-HCl pH 8.0, 150 mM NaCl; refined with C7 symmetry

B1: E. coli MscK (EcMscK) G924S gain-of-function mutant channel (natural protein, UniProt P77338 34-1120, looked up)
chain: RASSNGDLPTKADLQAQLDSLNKQKDLSAQDKLVQQDLTDTLATLDKIDRIKEETVQLRQKVAEAPEKMRQATAALTALSDVDNDEETRKILSTLSLRQLETRVAQALDDLQNAQNDLASYNSQLVSLQTQPERVQNAMYNASQQLQQIRSRLDGTDVGETALRPSQKVLMQAQQALLNAEIDQQRKSLEGNTVLQDTLQKQRDYVTANSARLEHQLQLLQEAVNSKRLTLTEKTAQEAVSPDEAARIQANPLVKQELEINQQLSQRLITATENGNQLMQQNIKVKNWLERALQSERNIKEQIAVLKGSLLLSRILYQQQQTLPSADELENMTNRIADLRLEQFEVNQQRDALFQSDAFVNKLEEGHTNEVNSEVHDALLQVVDMRRELLDQLNKQLGNQLMMAINLQINQQQLMSVSKNLKSILTQQIFWVNSNRPMDWDWIKAFPQSLKDEFKSMKITVNWQKAWPAVFIAFLAGLPLLLIAGLIHWRLGWLKAYQQKLASAVGSLRNDSQLNTPKAILIDLIRALPVCLIILAVGLILLTMQLNISELLWSFSKKLAIFWLVFGLCWKVLEKNGVAVRHFGMPEQQTSHWRRQIVRISLALLPIHFWSVVAELSPLHLMDDVLGQAMIFFNLLLIAFLVWPMCRESWRDKESHTMRLVTITVLSIIPIALMVLTATGYFYTTLRLAGRWIETVYLVIIWNLLYQTVLRGLSVAARRIAWRRALARRQNLVKEGAEGAEPPEEPTIALEQVNQQTLRITMLLMFALFGVMFWAIWSDLITVFSYLDSITLWHYNGTEAGAAVVKNVTMGSLLFAIIASMVAWALIRNLPGLLEVLVLSRLNMRQGASYAITTILNYIIIAVGAMTVFGSLGVSWDKLQWLAAALSVGLSFGLQEIFGNFVSGLIILFERPVRIGDTVTIGSFSGTVSKIRIRATTITDFDRKEVIIPNKAFVTERLINWSLTDTTTRLVIRLGVAYGSDLEKVRKVLLKAATEHPRVMHEPMPEVFFTAFGASTLDHELRLYVRELRDRSRTVDELNRTIDQLCRENDINIAFNQLEVHLHNEKGDEVTEVKRDYKGDDPTPAVG
notes: E. coli mechanosensitive channel MscK, 1120 amino acids, full length, with the point mutation G924S made by site-directed mutagenesis; Homoheptamer; closed, intermediate and open conformations came from the same sample; A few residues of the PreScission site are left at the C-terminus after cleavage; The deposited models lack unresolved parts, and some segments are polyalanine; also called G924S …
- stoichiometry N [1]: 7

B2: E. coli MscK (EcMscK), full-length wild-type channel (natural protein, UniProt P77338 34-1120, looked up)
chain: B1 chain with S891G
notes: E. coli mechanosensitive channel MscK, 1120 amino acids, full length, codon-optimized synthetic DNA; Homoheptamer; A few residues of the PreScission site are left at the C-terminus after cleavage; also called WT EcMscK; WT channel; not shown: GFP, C-terminal, cleaved; His10, C-terminal, cleaved
- binding result [2]: binds
